Experimental data published in article PMC3228903.
Substitutions are numbered along the chain they refer to. Names and notes keep the numbering of the source.

What was measured:
[1] = substrate: NCCC(=O)c1ccccc1N; test: Steady-state substrate oxidation and pH dependence, WT MAO B; assay type: biochemical, human; details: other: WT MAO B, pH 7.5
[2] = substrate: NCCc1ccccc1; test: as above; assay type: biochemical, human; details: other: WT MAO B, pH 7.5
[3] = substrate: NCc1ccccc1; test: purified protein, by the assay type; details: pH 7.5
[4] = substrate: NCCC(=O)c1ccccc1N; test: Steady-state substrate oxidation and pH dependence, Ile199Ala/Tyr326Ala MAO B; assay type: biochemical, human; details: other: I199A-Y326A, pH 7.5
[5] = substrate: NCCc1ccccc1; test: as above; assay type: biochemical, human; details: other: I199A-Y326A, pH 7.5
[6] = substrate: NCCC(=O)c1ccccc1N; test: Steady-state substrate oxidation and pH dependence, Ile199Ala MAO B; assay type: biochemical, human; details: other: I199A, pH 7.5
[7] = substrate: NCCc1ccccc1; test: as above; assay type: biochemical, human; details: other: I199A, pH 7.5

B1: WT MAO B (Homo sapiens) (protein)
chain: MSNKCDVVVVGGGISGMAAAKLLHDSGLNVVVLEARDRVGGRTYTLRNQKVKYVDLGGSYVGPTQNRILRLAKELGLETYKVNEVERLIHHVKGKSYPFRGPFPPVWNPITYLDHNNFWRTMDDMGREIPSDAPWKAPLAEEWDNMTMKELLDKLCWTESAKQLATLFVNLCVTAETHEVSALWFLWYVKQCGGTTRIISTTNGGQERKFVGGSGQVSERIMDLLGDRVKLERPVIYIDQTRENVLVETLNHEMYEAKYVISAIPPTLGMKIHFNPPLPMMRNQMITRVPLGSVIKCIVYYKEPFWRKKDYCGTMIIDGEEAPVAYTLDDTKPEGNYAAIMGFILAHKARKLARLTKEERLKKLCELYAKVLGSLEALEPVHYEEKNWCEEQYSGGCYTTYFPPGILTQYGRVLRQPVDRIYFAGTETATHWSGYMEGAVEAGERAAREILHAMGKIPEDEIWQSEPESVDVPAQPITTTFLERHLPSVPGLLRLIGLTTIFSATALGFLAHKRGLLVRV
[1]
  Km: 27 ± 2 µM
  kcat: 1.6 ± 0.0167 s⁻¹
  kcat/Km: 59200 ± 4500 M⁻¹ s⁻¹
[2]
  Km: 9.4 ± 0.9 µM
  kcat: 2.87 ± 0.05 s⁻¹
  kcat/Km: 300000 ± 33300 M⁻¹ s⁻¹
[3]; other: WT MAO B
  Km: 150 ± 27 µM
  kcat: 5 s⁻¹
  kcat/Km: 33300 M⁻¹ s⁻¹

B2: Ile199Ala/Tyr326Ala MAO B (Homo sapiens; I199A/Y326A) (protein)
chain: B1 chain with I199A, Y326A
[4]
  Km: 289 ± 23 µM
  kcat: 1.07 ± 0.0333 s⁻¹
  kcat/Km: 3670 ± 333 M⁻¹ s⁻¹
[5]
  Km: 703 ± 58 µM
  kcat: 1.83 ± 0.0333 s⁻¹
  kcat/Km: 2670 ± 167 M⁻¹ s⁻¹

B3: Ile199Ala MAO B (Homo sapiens; I199A) (protein)
chain: B1 chain with I199A
[6]
  Km: 94 ± 8 µM
  kcat: 1.47 ± 0.0333 s⁻¹
  kcat/Km: 15600 ± 1370 M⁻¹ s⁻¹
[7]
  Km: 40 ± 2 µM
  kcat: 2.05 ± 0.0333 s⁻¹
  kcat/Km: 51700 ± 3330 M⁻¹ s⁻¹
[3]; other: I199A
  Km: 2133 ± 409 µM
  kcat: 3.8 s⁻¹
  kcat/Km: 1780 M⁻¹ s⁻¹
